Assay results reported in PMC10842222.

Target: CRM1 (UniProt O14980)
Assay: co-immunoprecipitation, immunoblot
Conditions: reference: ALKBH5 WT, EGF-treated; sites Y71

Question: For “ALKBH5 (from UniProt Q6P6C2) ALKBH5 Y71F, EGF-treated”, which “binding against the reference” value is on record?
Answer: Its value is “stronger”.
